In article PMC7039449, “FMN-dependent oligomerization of putative lactate oxidase from Pediococcus acidilactici” (PLoS ONE, 2020):

What was measured:
PaLCTO = biological target: T1, PaLCTO (Pediococcus acidilactici, UniProt E0NE46); test: X-ray crystallography, […] Å (refolded with FMN: 6RHS, […] Å); SEC; format: binding; conditions: FMN in active site; FMN addition turns apo monomer into tetramer
T1 construct: gene lctO; recombinant in E. coli, pNH-TrxT, N-terminal thioredoxin/His tag cut with TEV; 39 kDa monomer, FMN-containing homotetramer (158 kDa)
T1 sequence (E0NE46 1-369): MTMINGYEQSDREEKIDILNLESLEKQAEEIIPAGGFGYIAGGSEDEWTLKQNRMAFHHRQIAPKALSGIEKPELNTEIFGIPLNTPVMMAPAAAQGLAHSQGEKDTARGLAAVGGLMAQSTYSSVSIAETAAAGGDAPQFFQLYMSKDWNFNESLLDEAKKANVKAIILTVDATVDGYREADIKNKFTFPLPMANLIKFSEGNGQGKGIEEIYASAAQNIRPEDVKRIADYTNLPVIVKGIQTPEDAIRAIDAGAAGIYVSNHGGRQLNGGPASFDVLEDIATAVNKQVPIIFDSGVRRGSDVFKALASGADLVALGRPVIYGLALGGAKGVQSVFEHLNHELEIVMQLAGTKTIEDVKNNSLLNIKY

purified protein = substrate: C[C@H](O)C(=O)O; test: purified protein; conditions: pH 6.5 (DMGA buffer), 37 °C, FMN added, air, L-lactate 0.2-2.0 mM, in-house recombinant enzyme
[1] = biological target: the molecule itself; test: SEC; recombinant AvLCTO, data not shown
[2] = biological target: the molecule itself; test: SEC; analytical SEC of the yellow, FMN-containing fraction; Superdex 200 Increase 10/300 calibrated with Bio-Rad standards; 30 mM Hepes pH 7.5, 350 mM NaCl, 0.5 mM TCEP

Cc1cc2nc3c(=O)[nH]c(=O)nc-3n(C[C@H](O)[C@H](O)[C@H](O)COP(=O)(O)O)c2cc1C [FMN]
X-ray crystallography, 1.9 Å (refolded with FMN: 6RHS, 2.6 Å); SEC (PaLCTO): The hydrogen bonding network between FMN and the surrounding residues contains in total twelve interactions

B1: Aerococcus viridans lactate oxidase (enzyme)
chain: MNNNDIEYNAPSEIKYIDVVNTYDLEEEASKVVPHGGFNYIAGASGDEWTKRANDRAWKHKLLYPRLAQDVEAPDTSTEILGHKIKAPFIMAPIAAHGLAHTTKEAGTARAVSEFGTIMSISAYSGATFEEISEGLNGGPRWFQIYMAKDDQQNRDILDEAKSDGATAIILTADSTVSGNRDRDVKNKFVYPFGMPIVQRYLRGTAEGMSLNNIYGASKQKISPRDIEEIAGHSGLPVFVKGIQHPEDADMAIKRGASGIWVSNHGARQLYEAPGSFDTLPAIAERVNKRVPIVFDSGVRRGEHVAKALASGADVVALGRPVLFGLALGGWQGAYSVLDYFQKDLTRVMQLTGSQNVEDLKGLDLFDNPYGYEY
notes: L-lactate oxidase of Aerococcus viridans, cloned from genomic DNA of strain DSM 20340; also called AvLCTO; recombinant AvLCTO; source: E. coli BL21 (DE3), purified
Km (purified protein): 520 ± 50 µM
stoichiometry N [1]: 4

B2: Pediococcus acidilactici lactate oxidase (enzyme)
chain: MTMINGYEQSDREEKIDILNLESLEKQAEEIIPAGGFGYIAGGSEDEWTLKQNRMAFHHRQIAPKALSGIEKPELNTEIFGIPLNTPVMMAPAAAQGLAHSQGEKDTARGLAAVGGLMAQSTYSSVSIAETAAAGGDAPQFFQLYMSKDWNFNESLLDEAKKANVKAIILTVDATVDGYREADIKNKFTFPLPMANLIKFSEGNGQGKGIEEIYASAAQNIRPEDVKRIADYTNLPVIVKGIQTPEDAIRAIDAGAAGIYVSNHGGRQLNGGPASFDVLEDIATAVNKQVPIIFDSGVRRGSDVFKALASGADLVALGRPVIYGLALGGAKGVQSVFEHLNHELEIVMQLAGTKTIEDVKNNSLLNIKY
notes: putative L-lactate oxidase of Pediococcus acidilactici DSM 20284, Uniprot E0NE46; gene cloned from genomic DNA into pNH-TrxT; theoretical monomer mass 39 kDa; The same polypeptide without FMN (colourless fraction, or deflavinated) is a monomer that lacks secondary structure by CD; also called PaLCTO; WT PaLCTO; source: E. coli BL21 (DE3), purified (Ni-NTA, TEV cleavage, second Ni-NTA, SEC); not …
stoichiometry N [2]: 4
